The test system of assay [1] is seven fluorescein-labeled pTyr-containing peptides. Kind of assay: in-solution fluorescence polarization binding assay, set of seven peptides. The conditions noted are these: average over seven peptides, relative to the wild type of the same SH2 domain. As for the experimental part: Each peptide was synthesized on the TentaGel amide resin (INTAVIS Inc.) and N-terminally labeled with fluorescein using NHS-fluorescein (Thermo Fisher Scientific). Each of the 13 variant and the wild-type SH2 domain was produced by overexpression in the Escherichia coli BL21(DE3) strain cultured in LB media (EMD Chemicals). Expression was induced by 0.3 mM isopropyl β-D-1-thiogalactopyranoside (IPTG), and the cell culture was incubated for 5 hours at 37° C. The cells were harvested by centrifuge, and broken on ice, in buffer solution containing 20 mM sodium phosphate, 0.1 M NaCl, 20 mM imidazole, 1 mg/ml lysozyme and 1% Triton-X 100, adjusted at pH 7.8. Affinity purification was performed with the Ni-NTA agarose resin (Qiagen Inc.), according to the manufacturer's instruction. […] Measurements of fluorescence polarization were conducted by titrating the SH2 domain concentration, while keeping the peptide concentration constant. Kd values were calculated with the GraphPad Prism software, by assuming the one-site binding model (GraphPad Software).
The determined Kd values of interaction between the 14 SH2 domains (including the wild-type) and seven peptides were listed in FIG. 7(a). […]
Fluorescence polarization assay was conducted to determine Kd values of the interaction between the wild-type or variant Src SH2 domain and seven fluorescein-labeled pTyr-containing peptides (FIG. 9a).
Background: Polarisation of emitted light reports the rotation of a fluorescent probe.

Assay [2] deals with T1, EGFR (Homo sapiens, UniProt P00533).
T1 construct: endogenous in cells; host or cells: HEK 293
Description: immunoprecipitation of GFP-fused SH2 domains with EGFR in HEK 293 cells. It counts as cell-based. The conditions noted are these: GFP-fusion expressed in HEK 293 cells, EGF 100 ng/ml, anti-GFP and anti-EGFR antibodies. From the text: The three variant SH2 domains mentioned in the previous sentence were dubbed as 8V/10A/15L-substituted SH2 domains, or the TrM SH2 domains, in the following descriptions, as well as in FIG. 11 and FIG. 12. The wild-type (Wt) and TrM SH2 domains, subcloned into the pEGFPC2 vector, were expressed in the HEK 293 cells as a GFP-fusion protein. Methods used in this and the following sections are described below.
Anti-GFP rabbit polyclonal antibody was purchased from Sigma-Aldrich. Anti-EGFR rabbit polyclonal antibody was purchased from Millipore. Anti-p44/42 MAPK (Erk1/2) mouse monoclonal antibody, and anti-phospho-p44/42 MAPK (Thr202/Tyr204) mouse monoclonal antibody were purchased from Cell Signaling. HEK 293 cells were grown in Dulbecco's modification of Eagle's medium (DMEM, Sigma-Aldrich) supplemented with 10% fetal bovine serum (FBS, SAFC Biosciences), 50 units/ml penicillin and 50 μg/ml streptomycin (GIBCO Invitrogen Corp.) in a humidified atmosphere of 5% CO2 in air at 37° C. EGF (Invitrogen) at a final concentration of 100 ng/ml was added to the medium at the indicated time point. Transient transfections were carried out with jet-PEI (PolyPlus-Transfection; Illkirch, France) according to manufacturer's instruction. […]

Consider “T8V: variant Fyn SH2 domain, Thr at position 8 to Val; SEQ ID NO:5 (RKDAERQLLSFGNPRGTFLIRESETVKGAYSLSIRDWDDMKGDHVKHYK; Synthetic construct T8V)”, for which the “average affinity increase, Kd[wild-type] divided by Kd[variant]” value in assay [1] was 1.4 fold. With “wild-type Src SH2 domain: human Src SH2 domain between Asp144 and Lys252; SEQ ID NO:18 [reference compound]”, in assay [2], the “binding to EGFR (immunoprecipitation)” value is recorded as “did not show detectable binding”. The same measure, in the same setting: in the case of “wild-type Grb2 SH2 domain: polypeptide between Met55 and Pro158 of the human Grb2 [reference compound]” it was “Weak binding”.

(Values after patent publication US10274499B2, “SH2 domain variants” (THE UNIVERSITY OF WESTERN ONTARIO, priority 2012, dated 2019).)
